The source of these data is IntAct's records for PubMed 38890443.

The chains are these.
B1: E3 ubiquitin-protein ligase RNF26 (Homo sapiens), Q9BY78 (parent)
chain: MEAVYLVVNGLGLVLDVLTLVLDLNFLLVSSLLASLAWLLAFVYNLPHTVLTSLLHLGRGVLLSLLALIEAVVRFTCGGLQALCTLLYSCCSGLESLKLLGHLASHGALRSREILHRGVLNVVSSGHALLRQACDICAIAMSLVAYVINSLVNICLIGTQNLFSLVLALWDAVTGPLWRMTDVVAAFLAHISSSAVAMAILLWTPCQLALELLASAARLLASFVLVNLTGLVLLACVLAVTVTVLHPDFTLRLATQALSQLHARPSYHRLREDVMRLSRLALGSEAWRRVWSRSLQLASWPNRGGAPGAPQGDPMRVFSVRTRRQDTLPEAGRRSEAEEEEARTIRVTPVRGRERLNEEEPPGGQDPWKLLKEQEERKKCVICQDQSKTVLLLPCRHLCLCQACTEILMRHPVYHRNCPLCRRGILQTLNVYL
partner: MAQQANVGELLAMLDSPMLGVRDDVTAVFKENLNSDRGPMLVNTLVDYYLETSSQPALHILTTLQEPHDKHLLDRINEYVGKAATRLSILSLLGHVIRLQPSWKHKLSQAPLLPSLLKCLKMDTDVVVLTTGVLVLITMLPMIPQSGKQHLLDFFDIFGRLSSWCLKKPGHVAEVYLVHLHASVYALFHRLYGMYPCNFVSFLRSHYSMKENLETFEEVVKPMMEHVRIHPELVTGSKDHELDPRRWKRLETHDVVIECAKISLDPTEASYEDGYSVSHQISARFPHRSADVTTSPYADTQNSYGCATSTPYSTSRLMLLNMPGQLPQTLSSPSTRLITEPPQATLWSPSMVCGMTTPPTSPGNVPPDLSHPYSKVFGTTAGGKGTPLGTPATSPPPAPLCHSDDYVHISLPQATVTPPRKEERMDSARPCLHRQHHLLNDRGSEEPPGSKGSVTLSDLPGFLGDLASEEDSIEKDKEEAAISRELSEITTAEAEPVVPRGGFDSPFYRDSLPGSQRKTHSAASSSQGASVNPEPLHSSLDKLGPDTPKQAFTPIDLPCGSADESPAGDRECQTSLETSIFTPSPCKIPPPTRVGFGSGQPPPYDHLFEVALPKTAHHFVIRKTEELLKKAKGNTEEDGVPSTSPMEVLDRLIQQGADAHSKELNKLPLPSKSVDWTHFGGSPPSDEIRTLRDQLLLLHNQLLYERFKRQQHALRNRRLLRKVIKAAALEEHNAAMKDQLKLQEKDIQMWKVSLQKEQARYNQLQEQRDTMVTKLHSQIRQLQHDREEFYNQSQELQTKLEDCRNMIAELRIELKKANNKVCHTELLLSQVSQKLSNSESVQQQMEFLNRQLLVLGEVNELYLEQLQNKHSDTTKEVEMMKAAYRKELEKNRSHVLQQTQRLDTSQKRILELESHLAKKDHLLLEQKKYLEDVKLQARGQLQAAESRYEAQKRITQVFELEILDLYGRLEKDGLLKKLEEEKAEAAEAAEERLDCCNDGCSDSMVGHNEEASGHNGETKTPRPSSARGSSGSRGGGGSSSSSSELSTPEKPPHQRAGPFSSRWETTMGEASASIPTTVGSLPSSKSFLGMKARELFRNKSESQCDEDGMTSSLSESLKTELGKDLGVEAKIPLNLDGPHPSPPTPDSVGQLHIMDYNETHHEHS

The variants in one assay derive from B1. The following applies: with tsc1_human TSC1, Q92574.
Turning to T348D, the “effect of a mutation on the interaction” value is given as “increasing interaction”.

Variants of B1 are the subject of the next assay. The following applies: with tsc1_human TSC1, Q92574. This is another data set of the same source.
For the variant T348A, the “effect of a mutation on the interaction” value is on record as “decreasing interaction”.
